Data: patent US20260209339A1 (RADIANT BIOTHERAPEUTICS, published 2026)
Where two headings read alike, the source gives them in different places.

What was measured:
[1] = target: interleukin-6 (IL-6) (UniProt P05231); assay: cell-based or functional assay
[2] = target: interleukin-6 (IL-6) (UniProt P05231); assay: ELISA on IL-6
[3] = target: interleukin-6 (IL-6) (UniProt P05231); assay: BLI (Octet), IL-6 immobilized on the biosensor
[4] = target: T1, interleukin-11 (IL-11) (UniProt P20809); assay: cell-based or functional assay
T1 sequence (looked up): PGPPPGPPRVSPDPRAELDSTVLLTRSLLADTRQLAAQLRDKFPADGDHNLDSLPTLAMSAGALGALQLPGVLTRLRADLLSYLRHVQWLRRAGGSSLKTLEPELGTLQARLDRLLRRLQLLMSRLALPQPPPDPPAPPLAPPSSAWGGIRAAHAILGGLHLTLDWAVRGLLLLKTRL

[5] = target: T1, interleukin-11 (IL-11); assay: ELISA on IL-11
[6] = target: T2, interleukin-11 (IL-11) (UniProt P20809 22-199, limits assumed); assay: cell-based or functional assay
T2 sequence (looked up): T1 sequence (looked up)

[7] = target: T2, interleukin-11 (IL-11); assay: ELISA on IL-11
Experimental: Binding of anti-IL-11 Multabodies to IL-11 was assessed using an enzyme-linked immunosorbent assay (ELISA).

[8] = target: interleukin-6 (IL-6) (UniProt P05231); assay: cell-based or functional assay; remark: listed apart in the source
[9] = target: T3, interleukin-6 (IL-6) (UniProt P05231 30-212); assay: cell-based or functional assay
[10] = target: T3, interleukin-6 (IL-6); assay: cell-based or functional assay; remark: listed apart in the source
[11] = target: T3, interleukin-6 (IL-6); assay: ELISA on IL-6
[12] = target: T3, interleukin-6 (IL-6); assay: cell-based or functional assay; remark: listed apart in the source
[13] = target: T3, interleukin-6 (IL-6); assay: BLI (Octet), IL-6 immobilized on the biosensor
Text: This method measures binding reactions at the surface of a fiber optic biosensor functionalized with an immobilized target moiety (e.g., IL-6).

[14] = target: T2, interleukin-11 (IL-11); assay: ELISA
[15] = target: bovine serum albumin (BSA) (bovine, UniProt P02769 25-607); assay: ELISA
Sequence of bovine serum albumin (BSA) (P02769 25-607 limits assumed): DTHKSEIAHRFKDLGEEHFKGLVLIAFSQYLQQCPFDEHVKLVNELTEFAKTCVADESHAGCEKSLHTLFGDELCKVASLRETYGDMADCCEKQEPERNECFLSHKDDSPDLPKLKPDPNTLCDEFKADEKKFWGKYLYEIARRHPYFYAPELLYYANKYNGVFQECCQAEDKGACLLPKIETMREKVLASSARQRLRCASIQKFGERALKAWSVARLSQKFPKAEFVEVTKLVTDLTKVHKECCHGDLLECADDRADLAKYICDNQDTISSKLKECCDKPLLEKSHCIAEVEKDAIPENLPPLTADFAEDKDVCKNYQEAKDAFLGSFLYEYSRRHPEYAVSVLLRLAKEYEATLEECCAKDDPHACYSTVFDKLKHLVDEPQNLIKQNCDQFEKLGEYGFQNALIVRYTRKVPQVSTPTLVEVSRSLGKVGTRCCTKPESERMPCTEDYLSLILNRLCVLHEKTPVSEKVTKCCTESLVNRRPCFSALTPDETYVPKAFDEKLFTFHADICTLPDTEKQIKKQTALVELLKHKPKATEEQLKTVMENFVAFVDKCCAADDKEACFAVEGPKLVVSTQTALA

Sequence of interleukin-6 (IL-6) (UniProt P05231) (P05231 30-212 limits assumed): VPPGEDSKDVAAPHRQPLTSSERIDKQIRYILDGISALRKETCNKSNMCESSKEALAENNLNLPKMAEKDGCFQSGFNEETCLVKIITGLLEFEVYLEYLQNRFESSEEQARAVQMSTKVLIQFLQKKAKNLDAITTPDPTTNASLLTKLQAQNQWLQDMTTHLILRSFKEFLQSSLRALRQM

Siltuximab Multabody (MB) (from UniProt P04945 1-108)
Fold change (IgG vs. Multabody), IL-6 Bioassay IC50 [1]: 26 fold
Fold change, INA-6 proliferation IC50 (IgG against MB) [1]: 9 fold
IC50 (nM), proliferation of IL-6-dependent INA-6 cells (CellTiter-Glo) [1]: 0.67 nM
IC50 (pM), IL-6 Bioassay (luciferase reporter cells) [1]: 44 pM
EC50 [2]: 0.0353 nM
Kd [3]: < 1 pM

B1: anti-IL-11 Multabody (MB), source antibody TPP-29536 (protein, part only; not given: Fab constants, linkers, ferritin carriers, not shown: another chain or arm of the molecule; a dimerising Fc or GST; large carriers; small tags and cut ends)
VH: EVQLLESGGGLVQPGGSLRLSCAASGFTFSSYGMHWVRQAPGKGLEWVAVISYDGSYKYYADSVKGRFTISRDNSKNTLYLQMNSLRAEDTAVYYCAAGVPDYWGQGTLVTVSS
VL: QSVLTQPPSASGTPGQRVTISCSGSSSNIGSDYDVHWYQQLPGTAPKLLIYSNEERPSGVPDRFSGSKSGTSASLAISGLRSEDEADYYCSAWDSSLSGPVFGGGTKLTVL
Fold change, IL-11-dependent pSTAT3/STAT3 IC50 (IgG against MB), Panc-1 cells [4]: 6 fold
IC50 (nM), IL-11-dependent pSTAT3/STAT3 (Meso Scale Discovery), Panc-1 cells [4]: 0.13 nM
EC50 [5]: 0.659 nM
fold better binding than the parental IgG control [5]: 3 to 4 fold

B2: TPP-29536 IgG (antibody, V domains shown)
VH: B1 VH
VL: B1 VL
notes: Tested as parental IgG; also called anti-IL-11 IgG; parental IgG control
IC50 (nM), IL-11-dependent pSTAT3/STAT3 (Meso Scale Discovery), Panc-1 cells [6]: 0.79 nM
EC50 [7]: 2.71 nM

B3: Olokizumab Multabody (MB) (protein, part only; not given: Fab constants, linkers, ferritin carriers, not shown: another chain or arm of the molecule; a dimerising Fc or GST; large carriers; small tags and cut ends)
VH: EVQLVESGGGLVQPGGSLRLSCAASGFNFNDYFMNWVRQAPGKGLEWVAQMRNKNYQYGTYYAESLEGRFTISRDDSKNSLYLQMNSLKTEDTAVYYCARESYYGFTSYWGQGTLVTVSS
VL: DIQMTQSPSSLSASVGDRVTITCQASQDIGISLSWYQQKPGKAPKLLIYNANNLADGVPSRFSGSGSGTDFTLTISSLQPEDFATYYCLQHNSAPYTFGQGTKLEIK
EC50 [2]: 0.0454 nM
Fold change (IgG vs. Multabody), IL-6 Bioassay IC50 [8]: 60 fold
Fold change (IgG/MB), IL-6-induced pSTAT3/STAT3 IC50, HCT-15 cells [8]: 7 fold
Fold change (IgG/MB), IL-6-induced pSTAT3/STAT3 IC50, THP-1 cells [8]: 8 fold
Fold change, INA-6 proliferation IC50 (IgG against MB) [8]: 16 fold
IC50 (nM), IL-6-induced pSTAT3/STAT3 (Meso Scale Discovery), HCT-15 cells [8]: 0.03 nM
IC50 (nM), IL-6-induced pSTAT3/STAT3 (Meso Scale Discovery), THP-1 cells [8]: 0.06 nM
IC50 (nM), proliferation of IL-6-dependent INA-6 cells (CellTiter-Glo) [8]: 0.33 nM
IC50 (pM), IL-6 Bioassay (luciferase reporter cells) [8]: 9.4 pM
Kd [3]: < 1 pM

B4: olokizumab IgG (antibody, V domains shown)
VH: B3 VH
VL: DIQMTQSPSSLSASVGDRVTITCQASQDIGISLSWYQQKPGKAPKLLIYNANNLADGVPSRFSGSGSGTDFTLTISSLQPEDFATYYCLQHNSAPYTFGQGTKLEIKR
notes: Tested as parental IgG; also called CDP6038
IC50 (pM), IL-6 Bioassay (luciferase reporter cells) [9]: 566 pM
IC50 (nM), proliferation of IL-6-dependent INA-6 cells (CellTiter-Glo) [10]: 5.29 nM
EC50 [11]: 0.201 nM
IC50 (nM), IL-6-induced pSTAT3/STAT3 (Meso Scale Discovery), HCT-15 cells [12]: 0.2 nM
IC50 (nM), IL-6-induced pSTAT3/STAT3 (Meso Scale Discovery), THP-1 cells [12]: 0.48 nM
Kd [13]: < 1 pM
binding result [14]: no binding
binding result [15]: no binding

B5: siltuximab immunoglobulin (IgG) (antibody, V domains shown)
VH: EVQLVESGGKLLKPGGSLKLSCAASGFTFSSFAMSWFRQSPEKRLEWVAEISSGGSYTYYPDTVTGRFTISRDNAKNTLYLEMSSLRSEDTAMYYCARGLWGYYALDYWGQGTSVTVSS
VL: QIVLIQSPAIMSASPGEKVTMTCSASSSVSYMYWYQQKPGSSPRLLIYDTSNLASGVPVRFSGSGSGTSYSLTISRMEAEDAATYYCQQWSGYPYTFGGGTKLEIKR
notes: Tested as parental IgG; also called siltuximab IgG; CNTO-328
IC50 (pM), IL-6 Bioassay (luciferase reporter cells) [9]: 1150 pM
IC50 (nM), proliferation of IL-6-dependent INA-6 cells (CellTiter-Glo) [10]: 5.88 nM
EC50 [11]: 0.154 nM
Kd [13]: < 1 pM
binding result [14]: no binding
binding result [15]: no binding

B6: Clazakizumab Multabody (MB) (protein, part only; not given: Fab constants, linkers, ferritin carriers, not shown: another chain or arm of the molecule; a dimerising Fc or GST; large carriers; small tags and cut ends)
VH: EVQLVESGGGLVQPGGSLRLSCAASGFSLSNYYVTWVRQAPGKGLEWVGIIYGSDETAYATSAIGRFTISRDNSKNTLYLQMNSLRAEDTAVYYCARDDSSDWDAKFNLWGQGTLVTVSS
VL: AIQMTQSPSSLSASVGDRVTITCQASQSINNELSWYQQKPGKAPKLLIYRASTLASGVPSRFSGSGSGTDFTLTISSLQPDDFATYYCQQGYSLRNIDNAFGGGTKVEIK
EC50 [2]: 0.0543 nM
Fold change (IgG vs. Multabody), IL-6 Bioassay IC50 [8]: 6 fold
IC50 (pM), IL-6 Bioassay (luciferase reporter cells) [8]: 100 pM
Kd [3]: < 1 pM

B7: clazakizumab IgG (antibody, V domains shown)
VH: B6 VH
VL: AIQMTQSPSSLSASVGDRVTITCQASQSINNELSWYQQKPGKAPKLLIYRASTLASGVPSRFSGSGSGTDFTLTISSLQPDDFATYYCQQGYSLRNIDNAFGGGTKVEIKR
notes: Tested as parental IgG
IC50 (pM), IL-6 Bioassay (luciferase reporter cells) [9]: 604 pM
EC50 [11]: 0.176 nM
Kd [13]: < 1 pM
binding result [14]: no binding
binding result [15]: no binding
